Measured values: US10919943B2, “Mutant proteins enabling agrochemical control of plant gene expression” (The Regents of the University of California, priority 2016, dated 2021)
Changes are numbered by the printed parent chain. Names may count otherwise.

B1: A89S: PYR1 mutant (protein, UniProt O49686 1-191, looked up, variant A89S)
Abscisic acid receptor PYR1: MPSELTPEERSELKNSIAEFHTYQLDPGSCSSLHAQRIHAPPELVWSIVRRFDKPQTYKHFIKSCSVEQNFEMRVGCTRDVIVISGLPSNTSTERLDILDDERRVTGFSIIGGEHRLTNYKSVTTVHRFEKENRIWTVVLESYVVDMPEGNSEDDTRMFADTVVKLNLQKLATVAEAMARNSGDGSGSQVT
B2: A89K: PYR1 mutant (protein, UniProt O49686 1-191, looked up, variant A89K)
Abscisic acid receptor PYR1: B1 Abscisic acid receptor PYR1 with S89K
B3: H115S: PYR1 mutant (protein, UniProt O49686 1-191, looked up, variant H115S)
Abscisic acid receptor PYR1: B1 Abscisic acid receptor PYR1 with S89A, H115S
B4: H115M: PYR1 mutant (protein, UniProt O49686 1-191, looked up, variant H115M)
Abscisic acid receptor PYR1: B1 Abscisic acid receptor PYR1 with S89A, H115M
B5: H115C: PYR1 mutant (protein, UniProt O49686 1-191, looked up, variant H115C)
Abscisic acid receptor PYR1: B1 Abscisic acid receptor PYR1 with S89A, H115C
B6: A89E: PYR1 mutant (protein, UniProt O49686 1-191, looked up, variant A89E)
Abscisic acid receptor PYR1: B1 Abscisic acid receptor PYR1 with S89E
B7: H115I: PYR1 mutant (protein, UniProt O49686 1-191, looked up, variant H115I)
Abscisic acid receptor PYR1: B1 Abscisic acid receptor PYR1 with S89A, H115I
B8: L117N: PYR1 mutant (protein, UniProt O49686 1-191, looked up, variant L117N)
Abscisic acid receptor PYR1: B1 Abscisic acid receptor PYR1 with S89A, L117N
B9: A89C: PYR1 mutant (protein, UniProt O49686 1-191, looked up, variant A89C)
Abscisic acid receptor PYR1: B1 Abscisic acid receptor PYR1 with S89C
B10: A89V: PYR1 mutant (protein, UniProt O49686 1-191, looked up, variant A89V)
Abscisic acid receptor PYR1: B1 Abscisic acid receptor PYR1 with S89V
B11: H115K: PYR1 mutant (protein, UniProt O49686 1-191, looked up, variant H115K)
Abscisic acid receptor PYR1: B1 Abscisic acid receptor PYR1 with S89A, H115K
B12: R116P: PYR1 mutant (protein, UniProt O49686 1-191, looked up, variant R116P)
Abscisic acid receptor PYR1: B1 Abscisic acid receptor PYR1 with S89A, R116P
B13: R116F: PYR1 mutant (protein, UniProt O49686 1-191, looked up, variant R116F)
Abscisic acid receptor PYR1: B1 Abscisic acid receptor PYR1 with S89A, R116F
B14: R116D: PYR1 mutant (protein, UniProt O49686 1-191, looked up, variant R116D)
Abscisic acid receptor PYR1: B1 Abscisic acid receptor PYR1 with S89A, R116D
B15: L117A: PYR1 mutant (protein, UniProt O49686 1-191, looked up, variant L117A)
Abscisic acid receptor PYR1: B1 Abscisic acid receptor PYR1 with S89A, L117A
B16: H115Q: PYR1 mutant (protein, UniProt O49686 1-191, looked up, variant H115Q)
Abscisic acid receptor PYR1: B1 Abscisic acid receptor PYR1 with S89A, H115Q
B17: A89D: PYR1 mutant (protein, UniProt O49686 1-191, looked up, variant A89D)
Abscisic acid receptor PYR1: B1 Abscisic acid receptor PYR1 with S89D
B18: R116A: PYR1 mutant (protein, UniProt O49686 1-191, looked up, variant R116A)
Abscisic acid receptor PYR1: B1 Abscisic acid receptor PYR1 with S89A, R116A
B19: H115W: PYR1 mutant (protein, UniProt O49686 1-191, looked up, variant H115W)
Abscisic acid receptor PYR1: B1 Abscisic acid receptor PYR1 with S89A, H115W
B20: R116W: PYR1 mutant (protein, UniProt O49686 1-191, looked up, variant R116W)
Abscisic acid receptor PYR1: B1 Abscisic acid receptor PYR1 with S89A, R116W
B21: H115E: PYR1 mutant (protein, UniProt O49686 1-191, looked up, variant H115E)
Abscisic acid receptor PYR1: B1 Abscisic acid receptor PYR1 with S89A, H115E
B22: H115A: PYR1 mutant (protein, UniProt O49686 1-191, looked up, variant H115A)
Abscisic acid receptor PYR1: B1 Abscisic acid receptor PYR1 with S89A, H115A
B23: R116Y: PYR1 mutant (protein, UniProt O49686 1-191, looked up, variant R116Y)
Abscisic acid receptor PYR1: B1 Abscisic acid receptor PYR1 with S89A, R116Y
B24: A89F: PYR1 mutant (protein, UniProt O49686 1-191, looked up, variant A89F)
Abscisic acid receptor PYR1: B1 Abscisic acid receptor PYR1 with S89F
B25: H115Y: PYR1 mutant (protein, UniProt O49686 1-191, looked up, variant H115Y)
Abscisic acid receptor PYR1: B1 Abscisic acid receptor PYR1 with S89A, H115Y
B26: H115G: PYR1 mutant (protein, UniProt O49686 1-191, looked up, variant H115G)
Abscisic acid receptor PYR1: B1 Abscisic acid receptor PYR1 with S89A, H115G
B27: H115L: PYR1 mutant (protein, UniProt O49686 1-191, looked up, variant H115L)
Abscisic acid receptor PYR1: B1 Abscisic acid receptor PYR1 with S89A, H115L
B28: H115F: PYR1 mutant (protein, UniProt O49686 1-191, looked up, variant H115F)
Abscisic acid receptor PYR1: B1 Abscisic acid receptor PYR1 with S89A, H115F
B29: A89T: PYR1 mutant (protein, UniProt O49686 1-191, looked up, variant A89T)
Abscisic acid receptor PYR1: B1 Abscisic acid receptor PYR1 with S89T
B30: R116C: PYR1 mutant (protein, UniProt O49686 1-191, looked up, variant R116C)
Abscisic acid receptor PYR1: B1 Abscisic acid receptor PYR1 with S89A, R116C
B31: R116S: PYR1 mutant (protein, UniProt O49686 1-191, looked up, variant R116S)
Abscisic acid receptor PYR1: B1 Abscisic acid receptor PYR1 with S89A, R116S
B32: R116T: PYR1 mutant (protein, UniProt O49686 1-191, looked up, variant R116T)
Abscisic acid receptor PYR1: B1 Abscisic acid receptor PYR1 with S89A, R116T
B33: H115R: PYR1 mutant (protein, UniProt O49686 1-191, looked up, variant H115R)
Abscisic acid receptor PYR1: B1 Abscisic acid receptor PYR1 with S89A, H115R
B34: R116G: PYR1 mutant (protein, UniProt O49686 1-191, looked up, variant R116G)
Abscisic acid receptor PYR1: B1 Abscisic acid receptor PYR1 with S89A, R116G
B35: R116H: PYR1 mutant (protein, UniProt O49686 1-191, looked up, variant R116H)
Abscisic acid receptor PYR1: B1 Abscisic acid receptor PYR1 with S89A, R116H
B36: A89H: PYR1 mutant (protein, UniProt O49686 1-191, looked up, variant A89H)
Abscisic acid receptor PYR1: B1 Abscisic acid receptor PYR1 with S89H
B37: R116V: PYR1 mutant (protein, UniProt O49686 1-191, looked up, variant R116V)
Abscisic acid receptor PYR1: B1 Abscisic acid receptor PYR1 with S89A, R116V
B38: H115D: PYR1 mutant (protein, UniProt O49686 1-191, looked up, variant H115D)
Abscisic acid receptor PYR1: B1 Abscisic acid receptor PYR1 with S89A, H115D
B39: H115V: PYR1 mutant (protein, UniProt O49686 1-191, looked up, variant H115V)
Abscisic acid receptor PYR1: B1 Abscisic acid receptor PYR1 with S89A, H115V
B40: A89Y: PYR1 mutant (protein, UniProt O49686 1-191, looked up, variant A89Y)
Abscisic acid receptor PYR1: B1 Abscisic acid receptor PYR1 with S89Y
B41: R116E: PYR1 mutant (protein, UniProt O49686 1-191, looked up, variant R116E)
Abscisic acid receptor PYR1: B1 Abscisic acid receptor PYR1 with S89A, R116E
B42: H115T: PYR1 mutant (protein, UniProt O49686 1-191, looked up, variant H115T)
Abscisic acid receptor PYR1: B1 Abscisic acid receptor PYR1 with S89A, H115T
B43: A89I: PYR1 mutant (protein, UniProt O49686 1-191, looked up, variant A89I)
Abscisic acid receptor PYR1: B1 Abscisic acid receptor PYR1 with S89I
B44: R116I: PYR1 mutant (protein, UniProt O49686 1-191, looked up, variant R116I)
Abscisic acid receptor PYR1: B1 Abscisic acid receptor PYR1 with S89A, R116I
B45: H115P: PYR1 mutant (protein, UniProt O49686 1-191, looked up, variant H115P)
Abscisic acid receptor PYR1: B1 Abscisic acid receptor PYR1 with S89A, H115P

Each molecule was assayed on HAB1 (assay: Yeast two hybrid of pBD-PYR1 site saturation mutants with pACT-HAB1 on 10 μM ABA, β-galactosidase staining). Settings: S. cerevisiae Y190, 10 μM ABA; dead = lack of visible staining in comparison to wild type control.
Assay type: cell-based, Arabidopsis
Set-up: key: x: Mutations in PYR1 that disrupt ABA-induced binding to PYR1 to HAB1
Summary of the method: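 S. cerevisiae Y190 co-expressing GAL4-DNA-binding-domain–PYR1 mutants and GAL4-activation-domain–HAB1 were spotted on SD (-Leu, -Trp) agar with 10 μM (+)-ABA for 2 days at 30° C. Colonies were chloroform-lysed and stained for β-galactosidase. Mutants lacking visible staining relative to wild type were scored as non-binding.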

Mutations in PYR1 that disrupt ABA-induced binding to PYR1 to HAB1 | Molecule
x | B1
x | B2
x | B3
x | B4
x | B5
x | B6
x | B7
x | B8
x | B9
x | B10
x | B11
x | B12
x | B13
x | B14
x | B15
x | B16
x | B17
x | B18
x | B19
x | B20
x | B21
x | B22
x | B23

Mutations in PYR1 that disrupt ABA-induced binding to PYR1 to HAB1 | Molecule
x | B24
x | B25
x | B26
x | B27
x | B28
x | B29
x | B30
x | B31
x | B32
x | B33
x | B34
x | B35
x | B36
x | B37
x | B38
x | B39
x | B40
x | B41
x | B42
x | B43
x | B44
x | B45
